From the Immune Epitope Database (IEDB)
pIC50, pKd: −log10 of the molar value.

What was measured:
HLA-B*48:01 = test: IEDB peptide-MHC binding, purified MHC/competitive/fluorescence; filed as Kd, often an IC50 or EC50 that approximates it; ≥ and ≤ were set here for values at or beyond the usual limits of such assays; details: source organism: Vibrio vulnificus YJ016
HLA-B*46:01 [1] = test: IEDB peptide-MHC binding, cellular MHC/competitive/fluorescence; ≥ and ≤ were set here for values at or beyond the usual limits of such assays; details: source organism: Human herpesvirus 4 strain B95-8
HLA-B*27:05 [2] = test: IEDB peptide-MHC binding, purified MHC/competitive/fluorescence; ≥ and ≤ were set here for values at or beyond the usual limits of such assays; details: source organism: hepatitis C virus genotype 1a
HLA-A*02:01 = test: IEDB peptide-MHC binding, purified MHC/direct/fluorescence; filed as Kd, often an IC50 or EC50 that approximates it; ≥ and ≤ were set here for values at or beyond the usual limits of such assays
HLA-A*69:01 = test: as above
HLA-C*07:02 = test: as above
HLA-B*83:01 = test: IEDB peptide-MHC binding, purified MHC/competitive/fluorescence; filed as Kd, often an IC50 or EC50 that approximates it; ≥ and ≤ were set here for values at or beyond the usual limits of such assays
HLA-A*32:07 = test: as above; details: source organism: Cryptosporidium parvum Iowa II
HLA-B*45:06 = test: as above
HLA-B*27:20 = test: as above
HLA-B*40:13 = test: as above
HLA-A*68:23 = test: as above
HLA-B*15:42 = test: as above
HLA-B*27:05 [3] = test: IEDB peptide-MHC binding, purified MHC/direct/fluorescence; filed as Kd, often an IC50 or EC50 that approximates it; ≥ and ≤ were set here for values at or beyond the usual limits of such assays; details: source organism: Escherichia coli
HLA-B*40:01 = test: as above; details: source organism: Escherichia coli
HLA-B*15:01 = test: as above
HLA-B*58:01 = test: as above; details: source organism: Escherichia coli
HLA-A*03:01 = test: as above; details: source organism: Escherichia coli
HLA-B*08:01 = test: as above; details: source organism: Escherichia coli
HLA-A*30:01 = test: as above; details: source organism: Escherichia coli
HLA-A*01:01 [4] = test: as above; details: source organism: Escherichia coli
HLA-A*26:01 = test: as above; details: source organism: Escherichia coli
HLA-A*11:01 = test: as above; details: source organism: Escherichia coli
HLA-A*31:01 = test: as above; details: source organism: Escherichia coli
HLA-B*07:02 = test: as above
HLA-B*73:01 = test: IEDB peptide-MHC binding, purified MHC/competitive/fluorescence; filed as Kd, often an IC50 or EC50 that approximates it; ≥ and ≤ were set here for values at or beyond the usual limits of such assays; details: source organism: Escherichia coli str. K-12 substr. MG1655
HLA-C*12:03 = test: IEDB peptide-MHC binding, purified MHC/direct/fluorescence; filed as Kd, often an IC50 or EC50 that approximates it; ≥ and ≤ were set here for values at or beyond the usual limits of such assays
HLA-C*06:02 [5] = test: IEDB peptide-MHC binding, purified MHC/competitive/fluorescence; filed as Kd, often an IC50 or EC50 that approximates it; ≥ and ≤ were set here for values at or beyond the usual limits of such assays; details: source organism: Homo sapiens
HLA-C*14:02 = test: as above
HLA-C*06:02 [6] = test: IEDB peptide-MHC binding, purified MHC/direct/fluorescence; filed as Kd, often an IC50 or EC50 that approximates it; ≥ and ≤ were set here for values at or beyond the usual limits of such assays
HLA-B*51:01 = test: as above; details: source organism: Salmonella enterica
HLA-C*15:02 = test: as above
HLA-B*46:01 [7] = test: IEDB peptide-MHC binding, purified MHC/competitive/fluorescence; filed as Kd, often an IC50 or EC50 that approximates it; ≥ and ≤ were set here for values at or beyond the usual limits of such assays; details: source organism: Salmonella enterica subsp. enterica serovar Typhi
HLA-A*32:15 = test: as above; details: source organism: Salmonella enterica subsp. arizonae serovar 62:z4,z23:-
HLA-A*29:02 = test: as above
HLA-C*04:01 = test: as above; details: source organism: Homo sapiens
HLA-A*01:01 [8] = test: as above; details: source organism: Homo sapiens
[9] = source organism: Cryptosporidium parvum
[10] = source organism: Cryptosporidium parvum Iowa II
[11] = source organism: Escherichia coli
[12] = source organism: Salmonella enterica subsp. enterica serovar Typhi str. CT18
[13] = source organism: Salmonella enterica subsp. enterica serovar Typhi
[14] = source organism: Salmonella enterica subsp. arizonae serovar 62:z4,z23:-

## DEHPWQPML
HLA-B*48:01
  pKd: ≤ 4.70

## FTYPVLEEM
HLA-B*46:01 [1]
  pIC50: 5.00

## GGATICGKY
HLA-B*27:05 [2]
  pIC50: ≤ 3.12

## MQFPGSVGF
HLA-A*02:01; [9]
  pKd: 6.11
HLA-A*69:01; [9]
  pKd: 5.44
HLA-C*07:02; [10]
  pKd: 6.37
HLA-B*83:01; [10]
  pKd: ≤ 5.30
HLA-A*32:07
  pKd: 8.92
HLA-B*45:06; [10]
  pKd: ≤ 5.30
HLA-B*27:20; [10]
  pKd: 9.10
HLA-B*40:13; [10]
  pKd: 9.05
HLA-A*68:23; [10]
  pKd: 7.37
HLA-B*15:42; [10]
  pKd: ≤ 5.30

## RRRIGEIFK
HLA-B*27:05 [3]
  pKd: 7.19
HLA-B*40:01
  pKd: ≤ 4.70
HLA-B*15:01; [11]
  pKd: ≤ 4.70
HLA-B*58:01
  pKd: ≤ 4.70
HLA-A*02:01; [11]
  pKd: ≤ 4.70
HLA-A*03:01
  pKd: ≤ 4.70
HLA-B*08:01
  pKd: ≤ 4.70
HLA-A*69:01; [11]
  pKd: ≤ 4.70
HLA-A*30:01
  pKd: 8.23
HLA-A*01:01 [4]
  pKd: ≤ 4.70
HLA-A*26:01
  pKd: ≤ 4.70
HLA-A*11:01
  pKd: ≤ 4.70
HLA-A*31:01
  pKd: ≤ 4.70
HLA-B*07:02; [11]
  pKd: ≤ 4.70
HLA-B*73:01
  pKd: ≤ 4.70

## VMAPRTLIL
HLA-C*12:03; source organism: Homo sapiens
  pKd: 6.40
HLA-B*83:01; source organism: Homo sapiens
  pKd: ≤ 5.30
HLA-B*45:06; source organism: Homo sapiens
  pKd: ≤ 5.30
HLA-C*06:02 [5]
  pKd: 5.42
HLA-B*15:42; source organism: Homo sapiens
  pKd: ≤ 5.30
HLA-C*14:02; source organism: Homo sapiens
  pKd: 6.68

## YLRNAGAAM
HLA-B*15:01; source organism: Salmonella enterica subsp. enterica serovar Typhimurium str. LT2
  pKd: 7.51
HLA-C*06:02 [6]; [12]
  pKd: 5.44
HLA-B*51:01
  pKd: ≤ 4.70
HLA-C*15:02; [12]
  pKd: 5.44
HLA-B*07:02; source organism: Salmonella enterica
  pKd: 8.89
HLA-B*83:01; [13]
  pKd: ≤ 5.30
HLA-B*45:06; [13]
  pKd: ≤ 5.30
HLA-B*27:20; [13]
  pKd: 6.73
HLA-B*15:42; [13]
  pKd: ≤ 5.30
HLA-C*14:02; [13]
  pKd: 8.44
HLA-B*46:01 [7]
  pKd: 7.26

## YTIYGAWMF
HLA-C*15:02; [14]
  pKd: 5.76
HLA-C*12:03; [14]
  pKd: 5.92
HLA-B*83:01; [14]
  pKd: ≤ 5.30
HLA-B*45:06; [14]
  pKd: ≤ 5.30
HLA-B*40:13; [14]
  pKd: 6.40
HLA-A*68:23; [14]
  pKd: 9.22
HLA-A*32:15
  pKd: 7.10
HLA-B*15:42; [14]
  pKd: ≤ 5.30
HLA-A*29:02; [14]
  pKd: 9.22
HLA-C*14:02; [14]
  pKd: 6.46

## YYWPRPRRY
HLA-C*06:02 [6]; source organism: Homo sapiens
  pKd: 7.85
HLA-C*07:02; source organism: Homo sapiens
  pKd: ≥ 9.00
HLA-C*12:03; source organism: Homo sapiens
  pKd: 6.55
HLA-B*83:01; source organism: Homo sapiens
  pKd: ≤ 5.30
HLA-B*45:06; source organism: Homo sapiens
  pKd: ≤ 5.30
HLA-B*15:42; source organism: Homo sapiens
  pKd: ≤ 5.30
HLA-C*04:01
  pKd: ≤ 5.30
HLA-A*29:02; source organism: Homo sapiens
  pKd: ≥ 10.00
HLA-A*01:01 [8]
  pKd: ≤ 4.70
